Measurements reported in patent US20180244778A1 (THERAPIX BIOSCIENCES, published 2018).

Columns and labels:
[1] = biological target: T1, human cell-surface CD3 (Cluster of Differentiation 3) on Jurkat cells (human, UniProt P07766 23-207); experiment: direct binding by FACS, dilution series on 3×10^5 Jurkat cells
T1 construct: whole, on cells; CD3 is a complex of several chains; also called human CD3; CD3 T-cell-surface molecule

[2] = biological target: T1, human cell-surface CD3 (Cluster of …); experiment: competition FACS on Jurkat cells; competitor OKT3-PE at 0.02 µg/mL

| Binder | EC50 [1] [µg/mL] | IC50 [2] [µg/mL] |
| --- | --- | --- |
| OKT3-PE labeled conjugate (Abcam Cat. No. ab86882) (antibody, mouse IgG2a, V domains shown, PE (phycoerythrin) conjugate, site not stated, Bought PE conjugate of OKT3; also called labeled OKT3) VH: not shown VL: QIVLTQSPAIMSASPGEKVTMTCSASSSVSYMNWYQQKSGTSPKRWIYDTSKLASGVPAHFRGSGSGTSYSLTISGMEAEDAATYYCQQWSSNPFTFGSGTKLEINR | 0.02 |  |
| VH2ala/Vκ2 humanized anti-CD3 mAb (antibody, V domains shown) VH: QVQLVQSGSELKKPGASVKVSCKASGYTFTRYTMHWVRQAPGKGLEWIGYINPSRGYTNYNQKFKDRATITTDKSTSTAYMELSSLRSEDTAVYYCARYYDDHYALDYWGQGTLVTVSS VL: QIVLTQSPATLSLSPGERATLSCSASSSVSYMNWYQQKPGKAPKRWIYDTSKLASGVPSRFSGSGSGTDYTLTISSLQPEDFATYYCQQWSSNPFTFGGGTKVEIKR |  | 0.045 |
| VH2val/Vκ2 humanized anti-CD3 mAb (antibody, V domains shown) VH: QVQLVQSGSELKKPGASVKVSCKASGYTFTRYTMHWVRQAPGKGLEWIGYINPSRGYTNYNQKFKDRATITTDKSTSTAYMELSSLRSEDTAVYYCARYYDDHYVLDYWGQGTLVTVSS VL: QIVLTQSPATLSLSPGERATLSCSASSSVSYMNWYQQKPGKAPKRWIYDTSKLASGVPSRFSGSGSGTDYTLTISSLQPEDFATYYCQQWSSNPFTFGGGTKVEIKR |  | 0.055 |
| VH2ser/Vκ2 humanized anti-CD3 mAb (antibody, V domains shown, Human IgG4 (Ser241Pro) / κ; also called VH2ser/Vκ2 mutant; VH2scr/VK2) VH: QVQLVQSGSELKKPGASVKVSCKASGYTFTRYTMHWVRQAPGKGLEWIGYINPSRGYTNYNQKFKDRATITTDKSTSTAYMELSSLRSEDTAVYYCARYYDDHYSLDYWGQGTLVTVSS VL: QIVLTQSPATLSLSPGERATLSCSASSSVSYMNWYQQKPGKAPKRWIYDTSKLASGVPSRFSGSGSGTDYTLTISSLQPEDFATYYCQQWSSNPFTFGGGTKVEIK |  | 0.041 |
